{
  "source": "paper PMC2819980",
  "key": {"[1]": {"tested_on": "NCCCP(=O)(O)OP(=O)(O)OC[C@H]1O[C@@H](n2ccc(N)nc2=O)[C@H](O)[C@@H]1O", "assay": "steady-state kinetics", "format": "biochemical, Streptomyces rubellomurinus"}, "[2]": {"tested_on": "Nc1ccn([C@@H]2O[C@H](COP(=O)(O)OP(=O)(O)CCCNO)[C@@H](O)[C@H]2O)c(=O)n1", "assay": "steady-state kinetics", "format": "biochemical, Streptomyces rubellomurinus"}},
  "data": [
    {"substance": "FrbF (Streptomyces rubellomurinus)", "values": [
      {"measurement": "Km", "setting": "[1]", "value": "35.2 ± 3.2", "unit": "µM"},
      {"measurement": "kcat", "setting": "[1]", "value": "0.0577 ± 0.00267", "unit": "s⁻¹"},
      {"measurement": "kcat/Km", "setting": "[1]", "value": 1630, "unit": "M⁻¹ s⁻¹"},
      {"measurement": "Km", "setting": "[2]", "value": "52.3 ± 3.0", "unit": "µM"},
      {"measurement": "kcat", "setting": "[2]", "value": "0.034 ± 0.00717", "unit": "s⁻¹"},
      {"measurement": "kcat/Km", "setting": "[2]", "value": 650, "unit": "M⁻¹ s⁻¹"}
    ]}
  ]
}
